Test results: article PMC4784909, “The Structural Basis of Coenzyme A Recycling in a Bacterial Organelle” (PLoS Biology, 2016)
Where two headings read alike, the source gives them in different places.

How the values were obtained:
[1] = target: pPduL, full length (PduL from the pvm locus of Planctomyces limnophilus) (Planctomyces limnophilus); assay: SEC; post-nickel affinity protein on HiLoad 26/60 Superdex 200 preparative column, pooled fractions (1-20 mg/mL) on Superdex 200 10/300 GL analytical column; 20 mM Tris pH 7.4, 50 mM NaCl
[2] = target: pPduL, full length (PduL from the pvm locus of Planctomyces limnophilus) (Planctomyces limnophilus); assay: as above; remark: listed apart in the source
[3] = target: T1, rPduLΔEP (Rhodopseudomonas palustris, UniProt Q21A54); design: gene pduL; details: crystals soaked 2 d in sodium phosphate pH 7.0; bridges both Zn in active site, CoA dissociated
[4] = target: T1, rPduLΔEP; assay: X-ray crystal structure, […] Å; type: binding; design: gene pduL; C-terminal 6xHis, codon optimized, E. coli BL21(DE3); dimer; contains 2 Zn; details: CoA co-purified from E. coli; sulfur coordinates Zn1 of di-zinc active site
[5] = target: the molecule itself; assay: SEC; post-nickel affinity protein on HiLoad 26/60 Superdex 200 preparative column, pooled fractions (1-20 mg/mL) on Superdex 200 10/300 GL analytical column; 20 mM Tris pH 7.4, 50 mM NaCl
[6] = target: the molecule itself; assay: SEC-MALS; Superdex S200 10/300 GL, 1 mg/ml protein injected, 0.5 ml/min, 20 mM Tris, 50 mM NaCl, pH 7.4

Which stoichiometry N [1] does the source give for “pPduL, full length (PduL from the pvm locus of Planctomyces limnophilus) (enzyme)” here?
The stoichiometry N was 6.

What about the stoichiometry N [2] of the same molecule?
The stoichiometry N was 2.

`O=P(O)(O)O` [phosphate] was tested. Which “X-ray crystal structure, phosphate soak, 2.10 Å” value [3] did it give?
Its value is “the CoA dissociates, and density for a phosphate molecule is visible at the active site”.

`CC(C)(COP(=O)(O)OP(=O)(O)OC[C@H]1O[C@@H](n2cnc3c(N)ncnc32)[C@H](O)[C@@H]1OP(=O)(O)O)[C@@H](O)C(=O)NCCC(=O)NCCS` [Coenzyme A] was tested. Which “X-ray crystal structure, 1.54 Å” value [4] did it give?
Its value is “tetrahedral coordination state with His48, His50, Glu109, and the CoA sulfur”.

B1: rPduLΔEP (PduL from the grm3 locus of Rhodopseudomonas palustris BisB18, N-terminal putative encapsulation peptide removed) (enzyme, UniProt Q21A54 34-226, looked up)
chain: GVDPFQVAVGVSNRHIHLSRTDMDTLFGPGAELQRKKAMKQPGQFAAEETVTLKGPKGSLSKVRVLGPLRRETQVEVSVADGFALGITPPLRQSGQLDDTPGLTIIGPQGSVTKDHGVIVAQRHIHMHPSTAAKLGLRNGDEVDVEAGGERGGVMHRVLIRVAEASADEMHIDVEEANALCLKNDDVVRICKK
notes: PduL phosphotransacylase, grm3 locus, Rhodopseudomonas palustris BisB18; N-terminal putative EP (33 amino acids) removed; the crystallized construct begins with M-G-V; The construct begins with M-G-V; Gene codon optimized and synthesized with the 6xHis tag; no tag cleavage step is described; Crystals hold CoA (or phosphate) and two zinc ions per chain; also called truncated rPduL; Pdul-His; …
Which “stoichiometry N” value [5] does the source give for B1 here?
The value was 2.

B2: rPduL, full length (PduL from the grm3 locus of Rhodopseudomonas palustris BisB18) (enzyme, UniProt Q21A54 1-226, looked up)
chain: MDMQQETIERIIRQVLGQVGPAGGSIATLSGDAGVDPFQVAVGVSNRHIHLSRTDMDTLFGPGAELQRKKAMKQPGQFAAEETVTLKGPKGSLSKVRVLGPLRRETQVEVSVADGFALGITPPLRQSGQLDDTPGLTIIGPQGSVTKDHGVIVAQRHIHMHPSTAAKLGLRNGDEVDVEAGGERGGVMHRVLIRVAEASADEMHIDVEEANALCLKNDDVVRICKK
notes: PduL phosphotransacylase, grm3 locus, Rhodopseudomonas palustris BisB18, with its N-terminal encapsulation peptide; Two oligomeric states by SEC (about a dimer and a higher oligomer); six subunits by SEC-MALS; also called rPduL hexamer; wildtype construct; source: E. coli BL21(DE3), purified (HisTrap, Superdex 200)
Which “stoichiometry N” value [6] does the source give for B2 here?
The value was 6.

What about the “stoichiometry N” value [5] of the same molecule?
Its value is roughly 2.
